Consider four molecules from patent US20260055173A1 (published 2026).

One experiment deals with T1, mouse VEGF-A (mouse, UniProt Q00731-2 27-190, limits assumed).
T1 sequence (looked up): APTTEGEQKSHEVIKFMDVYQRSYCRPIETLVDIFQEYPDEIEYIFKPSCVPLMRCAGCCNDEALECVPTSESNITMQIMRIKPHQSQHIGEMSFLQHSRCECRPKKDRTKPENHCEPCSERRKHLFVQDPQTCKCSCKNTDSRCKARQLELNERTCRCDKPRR
Description: ELISA, VHH-Fc expression supernatant on mouse VEGF-A. A general note: In an ELISA, binding on a coated surface is turned into a signal by an enzyme label.

The next experiment addresses human VEGF-A (human, UniProt P15692-4 27-191, limits assumed). Description: ELISA, VHH-Fc expression supernatant on human VEGF-A.
Experiment [1] addresses T2, human PD-1 (ACRO, His tag) (human, UniProt Q15116 25-167).
T2 construct: not shown: His tag
Description: ELISA, human PD-1 (His tag) coated, anti-human IgG Fc-HRP. As for the experimental part:
(§1) The binding of the antibody to human PD-1 was detected by ELISA. 1 μg/mL human PD-1 (ACRO, His tag) was coated on an ELISA plate overnight and blocked. Subsequently, the plate was added with gradient dilutions of the bispecific antibody and the control antibody, incubated and washed. Then, the plate was added with HRP-labeled anti-human IgG Fc secondary antibody, incubated and washed. After TMB solution was added for color development, the OD450 absorbance value was read on a microplate reader (see Table 12). […] Subsequently, the plate was added with gradient dilutions of the sample to be tested and the control antibody, incubated and washed. Then, the plated was added with HRP-labeled anti-human IgG Fc secondary antibody, incubated and washed. After TMB solution was added for color development, the OD450 absorbance value was read on a microplate reader (see Table 13). […] (The control substances were all obtained by in-house expression and purification)

In experiment [2] the target is T3, human PD-1 (ACRO, Fc tag) (human, UniProt Q15116 25-167).
T3 construct: not shown: Fc tag
T3 sequence (Q15116 25-167 limits assumed): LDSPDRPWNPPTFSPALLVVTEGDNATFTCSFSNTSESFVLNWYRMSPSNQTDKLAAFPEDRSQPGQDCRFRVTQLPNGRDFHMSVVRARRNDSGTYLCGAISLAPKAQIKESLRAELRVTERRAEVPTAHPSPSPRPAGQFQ
Description: competition ELISA: human PD-1 (Fc tag) coated, antibody mixed with human PD-L1 (His tag), anti-His-HRP. How it is done: (§2) An ELISA plate was coated with 1 ug/mL of human PD-1 (ACRO, Fc tag) overnight, washed and blocked. […] Then the plate was added with HRP-labeled anti-His antibody, and incubated for 1 hour. After TMB solution was added for color development, the OD450 absorbance value was read on a microplate reader (see Table 16).

Experiment [3] concerns the target T2, human PD-1 (ACRO, His tag). Nature of the experiment: dual (bridging) ELISA: human PD-1 (His tag) coated, antibody, then biotinylated human VEGF, streptavidin-HRP. As for the experimental part:
(§3) The order of the binding to VEGF and PD-1 was changed for dual ELISA detection. A 96-well ELISA plate was coated with 1 μg/mL human PD-1 (ACRO, His tag) overnight, washed and blocked for 1 hour. […] TMB solution was added for color development, and the OD450 nm absorbance value was read on a microplate reader.

The target in experiment [4] is T4, human VEGF (ACRO, His tag) (human, UniProt P15692-4 27-191, limits assumed).
T4 construct: not shown: His tag
Description: ELISA, human VEGF (His tag) coated, anti-human IgG Fc-HRP. As for the experimental part: as §1

In another experiment the target is VEGF. Description: cell-based or functional assay.
In experiment [5] the target is human VEGF (Sino Biological, no label) (human, UniProt P15692-4 27-191, limits assumed). Nature of the experiment: dual (bridging) ELISA: human VEGF (no label) coated, antibody, then human PD-1 (His tag), anti-His-HRP. As for the experimental part: Biological, no label) overnight, washed and blocked for 1 hour. Subsequently, the plate was added with gradient dilutions of the test antibody, incubated for 2 hours, then added with 1 μg/mL of human PD-1 (ACRO, His tag), incubated for 2 hours, washed, and incubated with HRP-labeled anti-His antibody for 1 hour. After TMB solution was added for color development, the OD450 nm absorbance value was read on a microplate reader.

In experiment [6] the target is T5, biotin-labeled human VEGF (ACRO, biotinylated protein) (human, UniProt P15692-4 27-191, limits assumed, biotinylated (site not stated)). Description: competition ELISA: human VEGFR2 (Fc tag) coated, antibody mixed with biotinylated human VEGF, streptavidin-HRP. How it is done: (§4) ELISA plates were respectively coated with 2 μg/mL human VEGFR1 and 5 μg/mL human VEGFR2 (in-house constructed and expressed, Fc tag) overnight, washed and blocked. […] Then the plates were added with HRP-labeled streptavidin and incubated for 1 hour. After TMB solution was added for color development, the OD450 nm absorbance value was read on a microplate reader.

Experiment [7] deals with monkey PD-1 (ACRO, His tag) (monkey, UniProt B0LAJ3 25-170). Description: ELISA, monkey PD-1 (His tag) coated, anti-human IgG Fc-HRP. How it is done:
The binding of candidate molecules and competitor to antigens of different species was detected by ELISA. […] The binding of antibodies to monkey PD-1 was detected by ELISA. An ELISA plate was coated with 1 μg/mL monkey PD-1 (ACRO, His tag) overnight and blocked. Subsequently, the plate was added with gradient dilutions of the sample to be tested and the control antibody, incubated and washed. Then, the plate was added with HRP-labeled anti-human IgG Fc secondary antibody, incubated and washed. After TMB solution was added for color development, the OD450 absorbance value was read on a microplate reader (see Table 15).

The target in experiment [8] is T5, biotin-labeled human VEGF (ACRO, …). Nature of the experiment: competition ELISA: human VEGFR1 (Fc tag) coated, antibody mixed with biotinylated human VEGF, streptavidin-HRP. As for the experimental part:
as §4

The target in experiment [9] is T3, human PD-1 (ACRO, Fc tag). Nature of the experiment: competition ELISA: human PD-1 (Fc tag) coated, antibody mixed with human PD-L1 (His tag); text: 'except for #48, which only bound to VEGF'. As for the experimental part: as §2
The target of experiment [10] is T2, human PD-1 (ACRO, His tag). Description: dual (bridging) ELISA: human PD-1 (His tag) coated, antibody, then biotinylated human VEGF; 'A single targeting antibody failed to bind to two targets simultaneously'. How it is done:
as §3

T2 sequence (Q15116 25-167 limits assumed): as above
monkey PD-1 (ACRO, His tag), sequence (B0LAJ3 entry or part of it limits assumed, form in doubt): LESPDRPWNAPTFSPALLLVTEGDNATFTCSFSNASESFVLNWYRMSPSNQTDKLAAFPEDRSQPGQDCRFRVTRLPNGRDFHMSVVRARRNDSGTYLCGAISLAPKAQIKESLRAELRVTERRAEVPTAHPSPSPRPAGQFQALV

B1: Strain #6 VHH (Fc fusion)
chain: QVQLQESGGGLVQPGGSLRLSCAASGFTFSTSTMSWYRQAPGKERELVAFITSAGATTNYADSVKDRFTMSRDNDKNTVYLQMNVLKPEDTAMYYCRALVTLWNVYWGQGTQVTVSS
notes: also called strain 6 (#6); not shown: Fc of the VHH-Fc construct
For B1, the EC50 with mouse VEGF-A worked out at 6.46 ng/mL; with human VEGF-A, 9.33 ng/mL.

B2: #16 bispecific antibody (bispecific antibody, human IgG1, kappa)
heavy: QVQLVQSGVEVKKPGASVKVSCKASGYTFTNYYMYWVRQAPGQGLEWMGGINPSNGGTNFNEKFKNRVTLTTDSSTTTAYMELKSLQFDDTAVYYCARRDYRFDMGFDYWGQGTTVTVSSASTKGPSVFPLAPSSKSTSGGTAALGCLVKDYFPEPVTVSWNSGALTSGVHTFPAVLQSSGLYSLSSVVTVPSSSLGTQTYICNVNHKPSNTKVDKKVEPKSCDKTHTCPPCPAPEAEGAPSVFLFPPKPKDTLMISRTPEVTCVVVDVSHEDPEVKFNWYVDGVEVHNAKTKPREEQYNSTYRVVSVLTVLHQDWLNGKEYKCKVSNKALPSSIEKTISKAKGQPREPQVYTLPPSREEMTKNQVSLTCLVKGFYPSDIAVEWESNGQPENNYKTTPPVLDSDGSFFLYSKLTVDKSRWQQGNVFSCSVMHEALHNHYTQKSLSLSPGEVQLLESGGGLVQPGGSLRLSCAASGFTFSTSTMSWYRQAPGKERELVSFITSAGATTYYADSVKGRFTMSRDNSKNTVYLQMNSLRAEDTAVYYCRALVTLWNVYWGQGTLVTVSS
light: EIVLTQSPATLSLSPGERATLSCRASKGVSTSGYSYLHWYQQKPGQAPRLLIYLASYLESGVPARFSGSGSGTDFTLTISSLEPEDFAVYYCQHSRDLPLTFGGGTKVEIKRTVAAPSVFIFPPSDEQLKSGTASVVCLLNNFYPREAKVQWKVDNALQSGNSQESVTEQDSKDSTYSLSSTLTLSKADYEKHKVYACEVTHQGLSSPVTKSFNRGEC
notes: Pembrolizumab-based anti-PD-1 IgG with #48 VHH at the C-terminus of the heavy chain; 2+2 valency; functionally silent IgG1 Fc (AEASS)
In the case of B2, the EC50 in experiment [1] was 0.114 nM; in experiment [3], 0.117 nM; in [4], 0.579 nM; in [5], 0.326 nM; in [7] it was 0.171 nM. Besides, the “TOP OD” value worked out at 2.58 OD450 in experiment [1], 3.65 OD450 in experiment [3], 1.75 OD450 in experiment [4] and 3.38 OD450 in experiment [7]. The IC50 in [2] amounted to 2.53 nM; in experiment [6], 3.25 nM; in experiment [8], 0.507 nM. Besides, in the experiment with VEGF, the “maximum inhibition rate (HUVEC proliferation)” value is around 60%.

B3: Strain #48 VHH (VHH, not shown: a dimerising Fc or GST)
VHH: EVQLLESGGGLVQPGGSLRLSCAASGFTFSTSTMSWYRQAPGKERELVSFITSAGATTYYADSVKGRFTMSRDNSKNTVYLQMNSLRAEDTAVYYCRALVTLWNVYWGQGTLVTVSS
notes: Humanized, stabilized variant of #6 (11 Kabat-numbered mutations)
Turning to B3, the binding result in experiment [9] and in experiment [10] was “no binding” each time. For the same molecule, the “TOP OD” value worked out at 0.061 OD450 in experiment [3] and 3.09 OD450 in experiment [4]. In experiment [4], this molecule displayed an EC50 of 0.608 nM. In experiment [6], this molecule displayed a half-inhibitory concentration (IC50) of 5.84 nM.

B4: Bevacizumab (antibody, V domains shown)
VH: EVQLVESGGGLVQPGGSLRLSCAASGYTFTNYGMNWVRQAPGKGLEWVGWINTYTGEPTYAADFKRRFTFSLDTSKSTAYLQMNSLRAEDTAVYYCAKYPHYYGSSHWYFDVWGQGTLVTVSS
VL: DIQMTQSPSSLSASVGDRVTITCSASQDISNYLNWYQQKPGKAPKVLIYFTSSLHSGVPSRFSGSGSGTDFTLTISSLQPEDFATYYCQQYSTVPWTFGQGTKVEIK
B4: the “TOP OD” value in experiment [1] came to 0.151 OD450; in experiment [3] it was 0.067 OD450; in experiment [7], 0.127 OD450.

The EC50 is the concentration that produces a half-maximal response. Broadly, the IC50 is the concentration at which inhibition is half-maximal.
